In patent publication US20230349919A1:

Columns and labels:
[1] = target: human IL-4Rα (hIL-4Rα) monomeric protein (human) (UniProt P24394); test: barcoded-antigen count on source cell (scRNA-seq)
[2] = target: human IL-6Rα (hIL-6Rα), barcoded negative control antigen (human) (UniProt P08887); test: barcoded-antigen count on source cell (scRNA-seq)
Ole e 1 (olive) [3] = target: Ole e 1 (olive) (UniProt P19963); test: barcoded antigen sequencing of single IgE PCs with trapped IgE
Ole e 1 (olive) [4] = target: Ole e 1 (olive) (UniProt P19963); test: barcoded antigen sequencing of single IgE PCs with trapped IgE [cont.]

Ole e 1 (olive), sequence (P19963 whole entry): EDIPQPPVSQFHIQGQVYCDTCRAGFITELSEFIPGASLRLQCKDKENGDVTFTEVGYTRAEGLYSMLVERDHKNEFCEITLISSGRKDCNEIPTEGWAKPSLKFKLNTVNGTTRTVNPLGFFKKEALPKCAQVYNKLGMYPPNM
human IL-6Rα (hIL-6Rα), barcoded negative control antigen (human), sequence (P08887 20-358 limits assumed): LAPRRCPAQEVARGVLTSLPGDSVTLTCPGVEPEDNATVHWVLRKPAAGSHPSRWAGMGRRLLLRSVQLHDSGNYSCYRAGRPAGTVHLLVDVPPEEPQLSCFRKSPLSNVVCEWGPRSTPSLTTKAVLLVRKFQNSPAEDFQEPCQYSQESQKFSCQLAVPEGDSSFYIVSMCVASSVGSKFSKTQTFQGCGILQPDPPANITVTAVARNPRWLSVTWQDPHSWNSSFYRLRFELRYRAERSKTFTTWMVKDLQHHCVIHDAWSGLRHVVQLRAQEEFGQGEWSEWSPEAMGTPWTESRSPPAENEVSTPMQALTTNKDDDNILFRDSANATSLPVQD

| Binder | REGN560.L15 ab raw [1] [counts] | REGN78.L15 ab raw [2] [counts] | Raw Antigen Barcode Count (Ole e 1 (olive) [3]) | Normalized Barcode Count (Ole e 1 (olive) [4]) |
| --- | --- | --- | --- | --- |
| Candidate ID 13 (antibody, V domains shown) VH: QAYLQQSGAELVRPGASVKMSCKASGYTFISYNMHWVKQTRRQGLEWIGAIYPGNGDTSYNQKFKGKATLTVDKSSSTAYMQLSSLTSEDSAVYFCARWDYYGSSYGAYWGQGTLVTVSA VL: DIQMTQSPASLSVSVGETVTITCRASENIYSNLAWYQQKQGKSPQLLVYAATNLADGVPSRFSGSGSGTQYSLKINSLQSEDFGSYYCQHFWGTPWTFGGGTKLEIK | – | – | 1 | -0.434 |
| Candidate ID 16 (antibody, V domains shown) VH: EVHLQQSGPDLVKPGASVMISCQASGYSFTAYYINWVKQSPEKSLEWIGEINPGSGGVIYNRKFEAKATLIVDKSSNTAFMLLTRLTSEDSAIYYCARKGFYQFDYWGQGTTLTVSS VL: SVVMTQIPKFLVVSAGDRVTITCKASQSVNDGVFWYQQKTGQSPKLVIYHTSNRYTGVSDRFTGSGYGTEFTFTISAVQSEDLAIYFCQQDYTSPLTFGGGTRLEIK | – | – | 3 | 0.603 |
| Table 1 Line # 22 antibody (SP_B_cell) (antibody, human IgG4, V domains shown) VH: EVQLVESGGGLVQPGRSLRLSCAASGFTFDDYAMYWVRQIPGKGLEWVSGITWNSGSIGYAGSVQGRFTISRDNAKNSLYLQMNSLRVEDTALYYCAKDIGGSYLGFDYWGQGALVTVSS VL: ETVLTQSPGTLSLSPGERVTLSCRASQSVSSTYLAWYQQKPGQAPRLLIYGASNRATGIPDRFSGSGSGTDFTLTISRLEPEDFAVYYCQQYGSSYTFGQGTKLEIK | 14000 | 5 | – | – |
| Candidate ID 21 (antibody, V domains shown) VH: QVQLQQSGPELVKPGASVKISCKAPGNAFSYSWMNWVKQRPGKGLEWVGRIYPGDGDTNYNGKFMGKATLTADKSSNTAYIQLSSLTSEDSAVYFCARSGGGTLYWYFDVWGTGTTVTVSS VL: DIVMTQSPSSLALSVGQKVTMNCRSSQSLLNSFNQKNYLAWFQQKPGQSPRLLIYFASTRESGVPDRFIGSGSGTDFTLTISSVQAEDLADYFCQQHYNTPLTFGAGTTLELK | – | – | 4 | 0.826 |

Second part, the binder after the results:

| REGN560.L15 ab raw [1] [counts] | REGN78.L15 ab raw [2] [counts] | Raw Antigen Barcode Count (Ole e 1 (olive) [3]) | Normalized Barcode Count (Ole e 1 (olive) [4]) | Binder |
| --- | --- | --- | --- | --- |
| 7340 | 106 | – | – | Table 1 Line # 33 antibody (SP_B_cell) (antibody, human IgG4, V domains shown) VH: EVQLLESGGGLVQPGGSLRLSCAASRFTFSNYEMNWVRQAPGKGLEWLSYINTSGTTIYYADSVKGRFTISRDNAKNSLYLQMNSLRAEDTAVYYCARVNWNSDAFDIWGQGTMVTVSS VL: EIVMTQSPATLSVSPGERATLSCRASQIVGSNLAWYHQKPGQAPRLLIYSASTRATGIPARFSGSGSGTEFTLTISSLQSEDFAVYYCQQYNNWPPFTFGPGTKVDIK |
| 1240 | 17 | – | – | Table 1 Line # 48 antibody (SP_Plasma_cell) (antibody, human IgG4, V domains shown) VH: EVQLVESGGVLVQPGRSLRLSCAASGFTFDDFAMHWVRQAPGKGLEWVSGISWNGNSIGYADSVKGRFTISRDNAKNSLYLQMNSLRTEDTALYYCAKDTSSWSYYYGMDVWGQGTTVTVSS VL: DIQMTQSPSSLSASVGDRVTITCRASQGIRNDLGWYQQKPGKAPKRLIYAASNLQSGVPSRFSGSGSGTEFTFTISSLQPEDFATYYCLQHNSYPYTFGQGTKLEIK |
| 1520 | 6 | – | – | Table 1 Line # 47 antibody (SP_Plasma_cell) (antibody, human IgG4, V domains shown) VH: ELQLVESGGGLVQPGRSLRLSCAASGFPFDAYAMHWVRQAPGKGLQWVSGIRWNGGNIDYVDSVKGRFTISRDNAKNSLYLQLNSLRSEDTALYYCAKDLGGSHYALDVWGQGTMVTVSS VL: DIQMTQSPSSLSASVGARVTITCRASQSINNDLNWYQQKPGKAPKFLIYAASSLQSGVPSRFSGRGSGTDFTLTIRSLQPEDFAVYYCQQTYSSPFTFGPGTKVDLK |
| 9180 | 179 | – | – | Table 1 Line # 30 antibody (SP_B_cell) (antibody, human IgG4, V domains shown) VH: EVQLVESGGGMVQPGRSLRLSCAASGFTFDDYAMHWVRQAPGKGLEWVSGIKWNGGNIGYADSVKDRFTISRDNAKNSLFLQMNSLRAEDAALYSCAKDIGGSQYALDVWGQGTTVTVSS VL: DIQMTQSPSSLSASVGDRVTITCRASLSIGSYLNWYQKKPGKAPKLLIFVASSLQGGVSSRFSGSGSGTDFTLTISSLQPEDFATYYCQQTYSTPFTFGPGTKVDIK |
